Test results published in publication PMC6754406, “Ran pathway-independent regulation of mitotic Golgi disassembly by Importin-α” (Nature Communications, 2019).

Columns and labels:
p115-CTD (a.a. 780–930) = assay: Isothermal titration calorimetry (ITC), p115-CTD; conditions: ITC (MicroCal iTC200), 25 °C, 20 mM HEPES pH 7.4, 1 mM DTT, 50 mM NaCl; one-sites binding model
Source text: Phosphorylation of GM130 on Ser-25 is correlated with p115 dissociation, with this process appearing to be specific to mitosis and being responsible for reduction of p115-mediated vesicle fusion to Golgi membranes[5]–[7],[9],[10]. The N-terminal region of GM130 and the p115 C-terminus interact[11],[12], so we purified recombinant proteins containing these two regions and then assessed their binding affinity by isothermal titration calorimetry (ITC). The wild type GM130 N-terminal region (a.a. 1-85; hereafter GM130-WT) directly bound p115 (a.a. 780–930; hereafter p115-CTD) (Fig. 1a). Furthermore, we examined if GM130 phosphorylation reduces the binding affinity for p115. […] We found in competition-binding assays that p115-CTD pulldown by GST-GM130-S25D was reduced when we added increasing amounts of Importin-α lacking the IBB domain (a.a. 70–524; hereafter Importin-α(ΔIBB)) (Fig. 1c). […]
To purify p115 (a.a. 780–930), cells containing p115 (a.a. […]) were resuspended in a buffer containing 50 mM K-phosphate (pH 7.4), 150 mM NaCl, and 2 mM β-mercaptoethanol. […] Fractions containing p115 protein were pooled and loaded into SEC (Superdex 75 16/600) and analyzed by SDS–PAGE. […]
Binding affinities of different GM130 proteins to Importin-α and Importin-β were measured by ITC (MicroCal iTC200). […] Protein concentrations were determined spectrophotometrically with respective extinction coefficients. […]

[1] = system: Importin-β (HEK293T cell lysate); assay: GST pulldown of Importin-β from HEK293T cell lysates; type: binding
Experimental: HEK293T cells were lysed in RIPA buffer containing 50 mM Tris, 150 mM NaCl, 1% NP-40, 1% sodium deoxycholate, 0.1% SDS, 1 mM phenylmethyl sulphonyl fluoride, 1 μg/ml aprotinin, and 1 μg/ml leupeptin. Supernatants were collected after centrifugation at 21,000×g for 10 min at 4 °C. Cell lysates were incubated with 5 µM of GST-GM130-WT, GST-GM130-S25D, or GST-GM130-S25D/K34A, and glutathione-coupled sepharose beads (GE Healthcare). After three pre-washes with buffer containing 150 mM NaCl, proteins were eluted using a buffer containing 50 mM of reduced glutathione. Eluted proteins were analyzed by SDS–PAGE, followed by Western blotting using antibodies against GM130 (Abcam ab52649), Importin-α (R&D Systems MAB6207), and Importin-β (Abcam ab2811). Uncropped scans of Western blots are provided in Supplementary Fig. 7.
Sup ple me ntary Figure 3. GM 130 is resistant to IBB displacement upon in teracting with […]
a-d, a, SE C (Superdex 200) elution profile for full-length Importin-α•GST-GM130-S25D (re d line ), full-length Importin-α (blue line), an d G ST-GM130-WT (green line). […] Th e v o i d volum e (Vo) is indicated. e, Western blotting analysis of Importin-α pull-down by GST-GM130-WT and GST-GM130-S25D from HEK293T ce l l l ys at es. […] Data repres ent mean ± standard deviation from three independent experiments. […]

- Kd (p115-CTD (a.a. 780–930)): ~980 nM
B1: GM130: GM130 (recombinant N-terminal region), variant not specified at the place (protein)
chain: MWPQPRLPPRPAMSEETRQSKLAAAKKKLREYQQRNSPGVPTGAKKKKKIKNGSNPETTTSGGCHSPEDTPKDNAATLQPSDDTVLPGGVPSPGASLTSMAASQNHDADNVPNLMDETKTFSSTESLRQLSQQLNGLVCESATCVNGEGPASSANLKDLESRYQQLAVALDSSYVTNKQLNITIEKLKQQNQEITDQLEEEKKECHQKQGALREQLQVHIQTIGILVSEKAELQTALAHTQHAARQKEGESEDLASRLQYSRRRVGELERALSAVSTQQKKADRYNKELTKERDALRLELYKNTQSNEDLKQEKSELEEKLRVLVTEKAGMQLNLEELQKKLEMTELLLQQFSSRCEAPDANQQLQQAMEERAQLEAHLGQVMESVRQLQMERDKYAENLKGESAMWRQRMQQMSEQVHTLREEKECSMSRVQELETSLAELRNQMAEPPPPEPPAGPSEVEQQLQAEAEHLRKELEGLAGQLQAQVQDNEGLSRLNREQEERLLELERAAELWGEQAEARRQILETMQNDRTTISRALSQNRELKEQLAELQSGFVKLTNENMEITSALQSEQHVKRELGKKLGELQEKLSELKETVELKSQEAQSLQQQRDQYLGHLQQYVAAYQQLTSEKEVLHNQLLLQTQLVDQLQQQEAQGKAVAEMARQELQETQERLEAATQQNQQLRAQLSLMAHPGEGDGLDREEEEDEEEEEEEAVAVPQPMPSIPEDLESREAMVAFFNSAVASAEEEQARLRGQLKEQRVRCRRLAHLLASAQKEPEAAAPAPGTGGDSVCGETHRALQGAMEKLQSRFMELMQEKADLKERVEELEHRCIQLSGETDTIGEYIALYQSQRAVLKERHREKEEYISRLAQDKEEMKVKLLELQELVLRLVGDRNEWHGRFLAAAQNPADEPTSGAPAPQELGAANQQGDLCEVSLAGSVEPAQGEAREGSPRDNPTAQQIMQLLREMQNPRERPGLGSNPCIPFFYRADENDEVKITVI
- Importin-α pulled down more than Importin-β [1]: ~ 10 -fold
- Western blot signal of Importin-β reduced compared to Importin-α FL ([1]; same acquisition conditions): more than 10 -fold
